Target: SARS-CoV-2 N protein K65R, not SUMOylated (SARS-CoV-2) (UniProt P0DTC9)
Test: FRET or BRET

Question: With “SARS-CoV-2 N protein K65R, not SUMOylated (from UniProt P0DTC9 1-419) (natural protein)” as the substance, how does the Kd read?
Answer: Its Kd is 1380 nM.
